Experimental data published in paper PMC3328451, “Mycobacterium tuberculosis Rv3586 (DacA) Is a Diadenylate Cyclase That Converts ATP or ADP into c-di-AMP” (PLoS ONE, 2012).

Tests used:
SEC = biological target: the molecule itself; assay: SEC
[1] = biological target: the molecule itself; assay: AUC; sedimentation velocity, 4°C, 10% glycerol in PBS; DacA and DacA_(1–287) at 40 000 rpm, DacA_(140–358) at 50 000 rpm; mass by the c(M) method in SEDFIT
[2] = biological target: the molecule itself; assay: cross-linking; 1.5 µM protein in 50 mM sodium phosphate pH 7.4, 20% glycerol, 5 mM MgCl2, with 35 mM glutaraldehyde for 1 h at room temperature; SDS-PAGE and Western blot with the anti-DacA antibody

B1: Mycobacterium tuberculosis Rv3586 (DacA) (enzyme)
chain: MHAVTRPTLREAVARLAPGTGLRDGLERILRGRTGALIVLGHDENVEAICDGGFSLDVRYAATRLRELCKMDGAVVLSTDGSRIVRANVQLVPDPSIPTDESGTRHRSAERAAIQTGYPVISVSHSMNIVTVYVRGERHVLTDSATILSRANQAIATLERYKTRLDEVSRQLSRAEIEDFVTLRDVMTVVQRLELVRRIGLVIDYDVVELGTDGRQLRLQLDELLGGNDTARELIVRDYHANPEPPSTGQINATLDELDALSDGDLLDFTALAKVFGYPTTTEAQDSTLSPRGYRAMAGIPRLQFAHADLLVRAFGTLQGLLAASAGDLQSVDGIGAMWARHVREGLSQLAESTISDQ
notes: also called native DacA; not shown: His tag, C-terminal, kept
stoichiometry N (SEC): 8

B2: DacA_(1–287) (domain or fragment)
chain: MHAVTRPTLREAVARLAPGTGLRDGLERILRGRTGALIVLGHDENVEAICDGGFSLDVRYAATRLRELCKMDGAVVLSTDGSRIVRANVQLVPDPSIPTDESGTRHRSAERAAIQTGYPVISVSHSMNIVTVYVRGERHVLTDSATILSRANQAIATLERYKTRLDEVSRQLSRAEIEDFVTLRDVMTVVQRLELVRRIGLVIDYDVVELGTDGRQLRLQLDELLGGNDTARELIVRDYHANPEPPSTGQINATLDELDALSDGDLLDFTALAKVFGYPTTTEAQDS
notes: also called first 287 aa of DacA; DacA lacking the C-terminal HhH domain
stoichiometry N [1]: 4

B3: DacA_(140–358) (domain or fragment)
chain: VLTDSATILSRANQAIATLERYKTRLDEVSRQLSRAEIEDFVTLRDVMTVVQRLELVRRIGLVIDYDVVELGTDGRQLRLQLDELLGGNDTARELIVRDYHANPEPPSTGQINATLDELDALSDGDLLDFTALAKVFGYPTTTEAQDSTLSPRGYRAMAGIPRLQFAHADLLVRAFGTLQGLLAASAGDLQSVDGIGAMWARHVREGLSQLAESTISDQ
notes: also called last 219 aa of DacA; DacA lacking the N-terminal Dac domain
stoichiometry N [2]: 2
